Results as given in patent US20180201681A1.

Tests used:
[1] = target: human CD83 on the cell surface (KM-H2, L428, FDCP1 and BB88 cells transfected with full length human CD83) (human) (UniProt Q01151); experiment: competition by flow cytometry on KM-H2 cells, antibodies added at the same time; reduction of the 3C12-RPE signal in the presence of HB15a-FITC
[2] = target: human CD83 on the cell surface (KM-H2, L428, FDCP1 and BB88 cells transfected with full length human CD83) (human) (UniProt Q01151); experiment: flow cytometry on the CD83+ cell line KM-H2, background control

Sequence of human CD83 on the cell surface (KM-H2, L428, FDCP1 and BB88 cells transfected with full length human CD83) (human) (Q01151 20-205): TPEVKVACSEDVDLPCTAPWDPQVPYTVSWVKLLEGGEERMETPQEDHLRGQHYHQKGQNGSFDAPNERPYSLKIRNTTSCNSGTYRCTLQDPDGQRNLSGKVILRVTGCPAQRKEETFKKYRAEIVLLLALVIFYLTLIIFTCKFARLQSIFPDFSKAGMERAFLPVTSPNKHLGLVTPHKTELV

Row | Reduction in 3C12 MFI (%) [1] [%] | MFI [2] [MFI] | Substance
1 | 24.7 | – | HB15a (commercial anti-human CD83 mAb, Immunotech) (antibody)
2 | – | 335 | isotype control (human IgG1) (antibody)
